Laboratory results taken from patent publication US20250076311A1 (Chugai, published 2025).
Positions count from the first letter of the chain named. Names and notes keep the numbering of the source. Values belong to the binder of their own block, whether it stands above or below them.

How the values were obtained:
[1] = target: T1, human FcγRIIb extracellular domain with C-terminal His-tag (human, UniProt P31994 43-217); experiment: SPR, KD(parent SG1)/KD(variant)
T1 construct: also called human FcgRIIb
T1 sequence: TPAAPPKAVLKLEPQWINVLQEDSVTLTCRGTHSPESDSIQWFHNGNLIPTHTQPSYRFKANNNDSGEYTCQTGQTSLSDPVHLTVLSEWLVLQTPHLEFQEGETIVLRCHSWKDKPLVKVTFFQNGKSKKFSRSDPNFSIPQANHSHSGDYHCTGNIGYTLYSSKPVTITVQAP

[2] = target: T2, cynomolgus monkey FcγRIIIaS extracellular domain with C-terminal His-tag (cynomolgus monkey, UniProt Q8SPW2 21-206 at identity 1.00)); experiment: SPR, KD(parent SG1)/KD(variant)
T2 construct: also called cyno FcgRIIIaS; cynoFcγRIIIaS
T2 chain: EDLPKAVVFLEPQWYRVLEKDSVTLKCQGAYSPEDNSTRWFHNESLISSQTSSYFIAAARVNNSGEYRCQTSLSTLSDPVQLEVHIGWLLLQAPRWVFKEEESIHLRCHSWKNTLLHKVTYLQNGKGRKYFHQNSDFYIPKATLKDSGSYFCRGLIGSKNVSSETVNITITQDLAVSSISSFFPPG

[3] = target: T3, human FcγRIIaH extracellular domain with C-terminal His-tag (human, UniProt P12318 34-217); experiment: SPR, KD(parent SG1)/KD(variant)
T3 construct: also called human FcgRIIaH; FcγRIIa (type H)
T3 sequence: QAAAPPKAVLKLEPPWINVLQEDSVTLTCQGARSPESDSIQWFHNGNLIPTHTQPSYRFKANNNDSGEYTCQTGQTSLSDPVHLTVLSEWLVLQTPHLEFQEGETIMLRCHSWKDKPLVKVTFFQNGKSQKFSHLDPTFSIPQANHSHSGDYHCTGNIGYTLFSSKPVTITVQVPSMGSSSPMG

[4] = target: T4, cynomolgus monkey FcγRIIIaS extracellular domain, His-tagged (cynomolgus monkey, UniProt Q8SPW2 21-206 at identity 1.00)); experiment: SPR (BIACORE), antibody captured, FcγR analyte, 25 C; KD of SG1 divided by KD of variant
T4 construct: also called cyno FcγRIIIaS; cynoFcgRIIIaS
T4 chain: T2 chain
Experimental: (§1) The kinetic analysis of interactions between these antibodies and FcγR was carried out using BIACORE® T200 or BIACORE® 4000 (GE Healthcare). HBS-EP+ (GE Healthcare) was used as the running buffer, and the measurement temperature was set to 25° C. […] After the measurement, the antibody captured on the chip was washed off by allowing reaction with 10 mM glycine-HCl, pH1.5 and 25 mM NaOH so that the chip was regenerated and used repeatedly. The sensorgrams obtained as measurement results were analyzed by the 1:1 Langmuir binding model using the BIACORE® Evaluation Software to calculate the binding rate constant ka (L/mol/s) and dissociation rate constant kd (1/s), and the dissociation constant KD (mol/L) was calculated from these values. […] Regarding such interactions, KD values were calculated using the following 1:1 binding model described in BIACORE® T100 Software Handbook BR1006-48 Edition AE.

[5] = target: T5, cynomolgus monkey FcγRIIb extracellular domain, His-tagged (cynomolgus monkey); experiment: as above
T5 construct: also called cyno FcγRIIb; cynoFcgRIIb
T5 chain: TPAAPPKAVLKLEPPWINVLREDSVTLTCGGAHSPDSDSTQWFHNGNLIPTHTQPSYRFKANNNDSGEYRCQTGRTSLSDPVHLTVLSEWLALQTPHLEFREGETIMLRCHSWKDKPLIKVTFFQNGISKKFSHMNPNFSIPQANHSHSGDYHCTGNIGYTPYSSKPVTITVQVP
Experimental: as §1

[6] = target: T6, human FcγRIIIaV extracellular domain with C-terminal His-tag (human, UniProt P08637 17-208); experiment: SPR (Biacore), antibody captured, FcgR analyte
T6 construct: also called human FcgRIIIaV
Experimental: as §1
T6 sequence (P08637 17-208 F176V): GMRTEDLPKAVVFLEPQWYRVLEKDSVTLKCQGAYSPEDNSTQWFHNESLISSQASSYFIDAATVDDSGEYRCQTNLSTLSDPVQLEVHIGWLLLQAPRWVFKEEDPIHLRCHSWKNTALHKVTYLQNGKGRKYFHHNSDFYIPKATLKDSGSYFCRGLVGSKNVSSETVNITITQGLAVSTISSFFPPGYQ

[7] = target: T7, cynomolgus monkey FcγRIIb extracellular domain with C-terminal His-tag (cynomolgus monkey); experiment: SPR (BIACORE), antibody captured, FcgR analyte
T7 construct: also called cyno FcgRIIb; cynoFcγRIIb; not shown: His-tag added to the C-terminus
T7 chain: T5 chain

[8] = target: T8, cynomolgus monkey FcγRIIa3 extracellular domain with C-terminal His-tag (cynomolgus monkey); experiment: SPR (BIACORE), antibody captured, FcgR analyte
T8 construct: also called cyno FcgRIIa3; cynoFcγRIIa3; not shown: His-tag added to the C-terminus
T8 chain: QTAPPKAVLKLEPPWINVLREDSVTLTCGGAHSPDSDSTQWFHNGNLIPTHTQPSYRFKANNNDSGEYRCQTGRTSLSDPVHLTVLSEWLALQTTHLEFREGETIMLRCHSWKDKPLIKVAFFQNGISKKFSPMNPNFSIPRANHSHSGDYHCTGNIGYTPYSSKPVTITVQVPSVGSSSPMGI

[9] = target: T9, human FcγRIIaR extracellular domain with C-terminal His-tag (human, UniProt P12318 34-217); experiment: SPR (BIACORE), antibody captured, FcgR analyte
T9 construct: also called human FcgRIIaR; FcγRIIa type R; not shown: His-tag added to the C-terminus
T9 chain: T3 sequence with H134R

[10] = target: T10, cynomolgus monkey FcγRIIIaS extracellular domain with C-terminal His-tag (cynomolgus monkey, UniProt A3RFZ7 21-206 (rhesus entry)); experiment: SPR (BIACORE), antibody captured, FcgR analyte
T10 construct: also called cyno FcgRIIIaS; cynoFcγRIIIaS; not shown: His-tag added to the C-terminus

[11] = target: T11, human FcγRIIIaV extracellular domain with C-terminal His-tag (human, UniProt P08637 17-208); experiment: SPR (BIACORE), antibody captured, FcgR analyte
T11 construct: also called human FcgRIIIaV; not shown: His-tag added to the C-terminus
T11 sequence (P08637 17-208 F176V): as the sequence (P08637 17-208 F176V) above

[12] = target: T12, human FcγRIIb extracellular domain with C-terminal His-tag (human, UniProt P31994 43-217); experiment: SPR (BIACORE), antibody captured, FcgR analyte
T12 construct: also called human FcgRIIb; not shown: His-tag added to the C-terminus
T12 sequence: T1 sequence

[13] = target: T13, cynomolgus monkey FcγRIIa3 extracellular domain with C-terminal His-tag (cynomolgus monkey); experiment: SPR (Biacore), KD of SG1 / KD of variant
T13 construct: also called cyno FcgRIIa3; cynoFcγRIIa3
T13 chain: T8 chain
Experimental: as §1

[14] = target: T14, human FcγRIIaR extracellular domain with C-terminal His-tag (human, UniProt P12318 34-217); experiment: SPR (Biacore), antibody captured, FcgR analyte
T14 construct: also called human FcgRIIaR; FcγRIIa (type R)
T14 chain: T3 sequence with H134R
Experimental: as §1

B2: M103205H795-MY445/M103202L889-SK1 (antibody, human IgG1, kappa, name in EU numbering)
heavy: QVTLKESGPVLVKPTETLTLTCTVSGIDLSHDDISWVRQAPGKGLEWVGIISYAGSTYYASWAKGRLTISKDTSKNQVVLTMTNMDPVDTATYYCARGVPAYSHGGDLWGQGTLVTVSSASTKGPSVFPLAPSSKSTSGGTAALGCLVKDYFPEPVTVSWNSGALTSGVHTFPAVLQSSGLYSLSSVVTVPSSSLGTQTYICNVNHKPSNTKVDKKVEPKSCDKTHTCPPCPAGELLTGPSVFLFPPKPKDTLMISRTPEVTCVVVDVSDEDPEVKFNWYVDGVEVHNAKTKPREEQYNSTYRVVSVLTVLHQDWLNGKEYKCKVSNKALPKPIEKTISKAKGQPREPQVYTLPPSREEMTKNQVSLTCLVKGFYPSDIAVEWESNGQPENNYKTTPPVLDSDGSFFLYSKLTVDKSRWQQGNVFSCSVMHEALHNHYTQKSLSLSP
light: DIVMTQSPATLSLSPGERATLSCTSSQSVYHANWLSWFQQKPGQPPKLLIYWASTLAYGVPSRFSGSGSGTDFTLTISSLQPEDAATYYCAGGYGGGRYAFGQGTKVEIKRTVAAPSVFIFPPSDEQLKSGTASVVCLLNNFYPREAKVQWKVDNALQSGNSQESVTEQDSKDSTYSLSSTLTLSKADYEKHKVYACEVTHQGLSSPVTKSFNRGEC
KD fold (SG1 = 1) [4]: 0.2 fold | KD fold (SG1 = 1) [5]: 1.3 fold

B4: M103205H795-MY210/M103202L889-SK1 (antibody, human IgG1, kappa, name in EU numbering)
heavy: B2 heavy with G234P, T238N, K328T
light: B2 light
notes: Fc variant of MS1032LO06-SG1; positions in EU numbering
Kd [7]: 280 nM | Kd [8]: 2300 nM | Kd [9]: 1400 nM | Kd [10]: 2400 nM | Kd [11]: 31000 nM

B8: MS1032LO19-SG1080 (antibody, name in EU numbering)
heavy: QVQLVESGGGLVQPGGSLRLSCAVSGIDLSHDDISWVRQAPGKGLEWVSIISYAGSTYYASWAKGRLTISKDTSKNQVVLTMTNMDPVDTATYYCARGVPAYSHGGDLWGQGTLVTVSSASTKGPSVFPLAPSSKSTSGGTAALGCLVKDYFPEPVTVSWNSGALTSGVHTFPAVLQSSGLYSLSSVVTVPSSSLGTQTYICNVNHKPSNTKVDKKVEPKSCDKTHTCPPCPAPELLNGPSVFLFPPKPKDTLMISRTPEVTCVVVDVSDEDPEVKFNWYVDGVEVHNAKTKPREELYNSTYRVVSVLTVLHRDWLNGKEYKCKVSNTALPKPIEKTISKAKGQRREPQVYTLPPSREEMTKNQVSLTCLVKGFYPSDIAVEWESNGQPENNYKTTPPVLDSDGSFFLYSKLTVDKSRWQQGNVFSCSVMHEALHAHYTRKELSLSP
light: B2 light with S25T, A32E
notes: tied to rows r18/r36 by row order only; also called MS103240H795-SG1080
KD fold (SG1 = 1) [2]: 0.18 fold | KD fold (SG1 = 1) [3]: 2.5 fold

B9: M103205H795-MY446/M103202L889-SK1 (antibody, human IgG1, kappa, name in EU numbering)
heavy: B2 heavy with G234H
light: B2 light
KD fold (SG1 = 1) [4]: 0.2 fold | KD fold (SG1 = 1) [5]: 2.5 fold

B11: M103205H795-MY448/M103202L889-SK1 (antibody, human IgG1, kappa)
heavy: B2 heavy with G234K
light: B2 light
notes: Substitutions in EU numbering on SG1
KD fold (SG1 = 1) [13]: 0.6 fold | Kd [6]: 1300 nM | Kd [14]: 21 nM

The next lines start with the values.

KD fold (SG1 = 1) [1]: 1 fold | KD fold (SG1 = 1) [2]: 0.06 fold | KD fold (SG1 = 1) [3]: 0.5 fold
B1: MS1032LO06-SG1033 (antibody, human IgG1, kappa, name in EU numbering)
heavy: B2 heavy with G234P, T238N, N436A
light: B2 light
notes: tied to rows r11/r29 by row order only; also called MS103205H795-SG1033; copies: 2 + 2

Kd [6]: 5400 nM
B3: M103205H795-MY265/M103202L889-SK1 (antibody)
heavy: B2 heavy with G234P
light: B2 light
notes: Substitutions in EU numbering on SG1; the cell prints I236T, the text gives Thr at 236 of MY201 (G236T)

Kd [7]: 1200 nM | Kd [12]: 5100 nM | Kd [10]: 1.3 nM
B5: M103205H795-MY288/M103202L889-SK1 (antibody, human IgG1, kappa, name in EU numbering)
heavy: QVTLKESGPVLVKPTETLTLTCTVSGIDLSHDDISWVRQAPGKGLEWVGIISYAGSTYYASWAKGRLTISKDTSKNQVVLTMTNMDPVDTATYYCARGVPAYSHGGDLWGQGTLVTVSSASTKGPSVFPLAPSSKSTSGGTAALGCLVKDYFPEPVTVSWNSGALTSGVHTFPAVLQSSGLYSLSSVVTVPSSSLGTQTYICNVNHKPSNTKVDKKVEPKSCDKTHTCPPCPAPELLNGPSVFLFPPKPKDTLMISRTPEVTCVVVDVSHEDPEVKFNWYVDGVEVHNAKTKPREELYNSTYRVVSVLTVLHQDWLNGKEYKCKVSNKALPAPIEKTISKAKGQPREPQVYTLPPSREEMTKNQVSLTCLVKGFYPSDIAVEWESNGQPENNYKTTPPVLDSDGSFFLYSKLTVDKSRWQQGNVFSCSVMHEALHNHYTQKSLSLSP
light: B2 light
notes: as for B4

Kd [7]: 570 nM | Kd [8]: 2900 nM | Kd [10]: 2600 nM
B6: M103205H795-MY212/M103202L889-SK1 (antibody, human IgG1, kappa, name in EU numbering)
heavy: B2 heavy with G234P, T238N, S241V, Q297L, K328T
light: B2 light
notes: as for B4

KD fold (SG1 = 1) [1]: 1 fold | KD fold (SG1 = 1) [2]: 0.11 fold | KD fold (SG1 = 1) [3]: 2.7 fold
B7: MS1032LO06-SG1034 (antibody, human IgG1, kappa, name in EU numbering)
heavy: B2 heavy with G234P, Q313R, D415K, N436A
light: B2 light
notes: tied to rows r12/r30 by row order only; also called MS103205H795-SG1034; copies: 2 + 2

KD fold (SG1 = 1) [4]: 0.2 fold | KD fold (SG1 = 1) [5]: 0.8 fold
B10: M103205H795-MY448/M103202L889-SK1 (antibody, human IgG1, kappa, name in EU numbering)
heavy: B2 heavy with G234K
light: B2 light
